This passage reports binding result and Kd results from article PMC2965066 (Science (New York, N.Y.), 2010).

The target of experiment [1] is T1, YU2 gp120 (HIV-1 (strain YU2), UniProt P35961). Put plainly: ELISA.
Experiment [2] concerns the target T1, YU2 gp120. Briefly: SPR.

B1: VRC03 (antibody, V domains shown)
VH: QVQLVQSGAVIKTPGSSVKISCRASGYNFRDYSIHWVRLIPDKGFEWIGWIKPLWGAVSYARQLQGRVSMTRQLSQDPDDPDWGVAYMEFSGLTPADTAEYFCVRRGSCDYCGDFPWQYWGQGTVVVVSS
VL: EIVLTQSPGILSLSPGETATLFCKASQGGNAMTWYQKRRGQVPRLLIYDTSRRASGVPDRFVGSGSGTDFFLTINKLDREDFAVYYCQQFEFFGLGSELEVH
As for B1, the binding result with YU2 gp120 [1] is “binds”. In the experiment with YU2 gp120 [2], this molecule displayed a Kd of 73.1 nM.
